From US20150274802A1
“And” between values parts separate entries of the source, which are not always exact repeats. Identical values can stand only once.

Assays:
[1] = target: human IGF-1 receptor (human) (UniProt P08069); assay: competition SPA, [125I]IGF-1
[2] = target: human insulin receptor (human) (UniProt P06213); assay: competition SPA, [125I]insulin
[3] = target: human IGF-1 receptor (human) (UniProt P08069); assay: cell-based or functional assay
[4] = target: type A insulin receptor (UniProt P06213); assay: cell-based or functional assay
[5] = target: type B insulin receptor (UniProt P06213); assay: cell-based or functional assay

| % IGF-1 (in test) [1] | % native IGF-1 activity (0.55 nM) [1] | % insulin (in test) [2] | % native insulin activity (0.6 nM) [2] | IC50 [2] | % Insulin Activity (in vitro, assay not named) [3] | % Insulin Activity (in vitro, assay not named) [4] | % Insulin Activity (in vitro, assay not named) [5] | Substance |
| --- | --- | --- | --- | --- | --- | --- | --- | --- |
| 0.9% | 0.9% | 11.3% and 20.1% | 22.5% and 24.2% | 2.67 nM and 2.48 nM | – | – | – | IGF-1 A:In (1-17)-IGF-1 B(18-30) (from UniProt P05019 18-30) (ligand) |
| – | – | – | – | – | < 0.1% | 0.2% | 0.1% | MIU-67: B2, C8-PEG10K di-PEGylated MIU-35 (ligand) |
| – | – | – | – | – | < 0.1% | 0.4% | 0.1% | MIU-68: B2, B22-PEG10K di-PEGylated MIU-35 (ligand) |
| – | – | – | – | – | < 0.1% | 1% | 0.5% | MIU-69: B2, A14-PEG10K di-PEGylated MIU-35 (ligand) |
